Key:
[1] = biological target: T1, human ROR1 (full-length, on the cell surface) (human, UniProt Q01973 30-937); experiment: flow cytometry, Ba/F3-ROR1 cells
T1 construct: whole, on cells; the tumour cell lines carry their own ROR1; also called Ba/F3-ROR1 cells; Jeko-1
Method: (§1) The affinities of the anti-human ROR1 humanized antibodies to Ba/F3-ROR1, Jeko-1, HT-29 and A549 cells were detected by flow cytometry. The specific experimental steps were as follows: the BaBF3-ROR1, Jeko-1, HT-29 and A549 cells were incubated with the purified humanized antibodies of different concentration gradients on ice for 30 minutes, and the anti-ROR1 antibody UC961 with human IgG1 and the anti-TNP antibody were used as positive and negative controls, respectively.

[2] = biological target: T1, human ROR1 (full-length, on the cell …); experiment: flow cytometry, A549 cells
Method: as §1

[3] = biological target: T1, human ROR1 (full-length, on the cell …); experiment: flow cytometry, Jeko-1 cells
Method: as §1

[4] = biological target: T1, human ROR1 (full-length, on the cell …); experiment: flow cytometry, HT-29 cells
Method: as §1

T1 sequence (Q01973 30-937): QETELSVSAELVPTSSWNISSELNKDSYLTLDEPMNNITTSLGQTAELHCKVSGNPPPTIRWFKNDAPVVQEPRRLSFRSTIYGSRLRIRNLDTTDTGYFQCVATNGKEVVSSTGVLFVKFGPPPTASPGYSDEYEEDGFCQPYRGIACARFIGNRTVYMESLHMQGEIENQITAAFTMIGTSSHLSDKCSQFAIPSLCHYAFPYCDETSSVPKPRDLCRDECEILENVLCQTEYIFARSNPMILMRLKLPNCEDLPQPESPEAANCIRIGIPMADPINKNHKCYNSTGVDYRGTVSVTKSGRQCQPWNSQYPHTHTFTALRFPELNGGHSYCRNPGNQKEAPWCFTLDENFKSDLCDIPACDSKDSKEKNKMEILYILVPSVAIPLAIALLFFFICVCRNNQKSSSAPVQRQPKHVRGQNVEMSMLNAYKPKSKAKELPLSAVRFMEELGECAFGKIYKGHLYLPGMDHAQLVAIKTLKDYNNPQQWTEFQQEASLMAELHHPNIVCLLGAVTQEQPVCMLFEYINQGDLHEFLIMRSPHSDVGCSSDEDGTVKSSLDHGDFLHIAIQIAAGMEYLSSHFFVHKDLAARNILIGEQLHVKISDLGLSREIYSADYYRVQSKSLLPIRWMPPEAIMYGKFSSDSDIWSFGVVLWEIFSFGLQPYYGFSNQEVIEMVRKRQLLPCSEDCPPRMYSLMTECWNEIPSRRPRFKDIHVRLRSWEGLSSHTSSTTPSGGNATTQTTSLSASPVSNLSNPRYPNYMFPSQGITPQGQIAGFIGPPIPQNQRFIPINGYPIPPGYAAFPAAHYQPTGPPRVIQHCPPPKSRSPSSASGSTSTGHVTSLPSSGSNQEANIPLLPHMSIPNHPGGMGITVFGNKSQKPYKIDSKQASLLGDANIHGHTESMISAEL

Binder | EC50 [1] | EC50 [2] | EC50 [3] | EC50 [4]
3D8-Hu46 (antibody, human IgG1, kappa, V domains shown, humanized, human IgG1 / kappa) VH: EVQLVESGGGLVQPGGSLRLSCAASGFTFSSYAMSWVRQAPGKGLEWVSSINSGGSTYYPDSVKGRFTISRDNSKNTLYLQMNSLRAEDTAVYYCARVNYYGYGDYAMDYWGQGTLVTVSS VL: DIQMTQSPSSLSASVGDRVTITCQASQDINSYLSWFQQKPGKSPKTLIYRANRLVTGVPSRFSGSGSGTDYTFTISSLQPEDIATYYCLQYDEFPYTFGGGTKLEIKR | 0.39 nM | 0.2 nM | 0.08 nM | 0.35 nM
3D8-Hu25 (antibody, human IgG1, kappa, V domains shown, humanized, human IgG1 / kappa) VH: EVQLVESGGGLVQPGGSLRLSCAASGFTFSSYAMSWVRQAPGKGLEWVASINSGGSTYYPDSVKGRFTISRDNAKNSLYLQMNSLRAEDTAVYYCARVNYYGYGDYAMDYWGQGTLVTVSS VL: DIQMTQSPSSLSASVGDRVTITCQASQDINSYLSWFQQKPGKAPKTLIYRANRLVTGVPSRFSGSGSGTDFTFTISSLQPEDIATYYCLQYDEFPYTFGGGTKLEIKR | 0.29 nM | 0.22 nM | 0.07 nM | 0.23 nM
3D8-Hu26 (antibody, human IgG1, kappa, V domains shown, humanized, human IgG1 / kappa) VH: EVQLVESGGGLVQPGGSLRLSCAASGFTFSSYAMSWVRQAPGKGLEWVASINSGGSTYYPDSVKGRFTISRDNAKNSLYLQMNSLRAEDTAVYYCARVNYYGYGDYAMDYWGQGTLVTVSS VL: DIQMTQSPSSLSASVGDRVTITCQASQDINSYLSWFQQKPGKSPKTLIYRANRLVTGVPSRFSGSGSGTDYTFTISSLQPEDIATYYCLQYDEFPYTFGGGTKLEIKR | 0.29 nM | 0.2 nM | 0.08 nM | 0.26 nM
3D8-Hu27 (antibody, human IgG1, kappa, V domains shown, humanized, human IgG1 / kappa) VH: EVQLVESGGGLVQPGGSLRLSCAASGFTFSSYAMSWVRQAPGKGLEWVASINSGGSTYYPDSVKGRFTISRDNAKNSLYLQMNSLRAEDTAVYYCARVNYYGYGDYAMDYWGQGTLVTVSS VL: DIQMTQSPSSLSASVGDRVTITCQASQDISNYLSWFQQKPGKSPKTLIYRANRLVTGVPSRFSGSGSGTDYTFTISSLQPEDIATYYCLQYDEFPYTFGGGTKLEIKR | 0.2 nM | 0.91 nM | 0.04 nM | 0.27 nM
3D8-Hu45 (antibody, human IgG1, kappa, V domains shown, humanized, human IgG1 / kappa) VH: EVQLVESGGGLVQPGGSLRLSCAASGFTFSSYAMSWVRQAPGKGLEWVSSINSGGSTYYPDSVKGRFTISRDNSKNTLYLQMNSLRAEDTAVYYCARVNYYGYGDYAMDYWGQGTLVTVSS VL: DIQMTQSPSSLSASVGDRVTITCQASQDINSYLSWFQQKPGKAPKTLIYRANRLVTGVPSRFSGSGSGTDFTFTISSLQPEDIATYYCLQYDEFPYTFGGGTKLEIKR | 0.33 nM | 0.19 nM | 0.08 nM | 0.2 nM
3D8-Hu47 (antibody, human IgG1, kappa, V domains shown, humanized, human IgG1 / kappa) VH: EVQLVESGGGLVQPGGSLRLSCAASGFTFSSYAMSWVRQAPGKGLEWVSSINSGGSTYYPDSVKGRFTISRDNSKNTLYLQMNSLRAEDTAVYYCARVNYYGYGDYAMDYWGQGTLVTVSS VL: DIQMTQSPSSLSASVGDRVTITCQASQDISNYLSWFQQKPGKSPKTLIYRANRLVTGVPSRFSGSGSGTDYTFTISSLQPEDIATYYCLQYDEFPYTFGGGTKLEIKR | 0.28 nM | 0.31 nM | 0.08 nM | 0.29 nM
3D8-Hu55 (antibody, human IgG1, kappa, V domains shown, humanized, human IgG1 / kappa) VH: EVQLVESGGGLVQPGGSLRLSCAASGFTFSSYAMSWVRQAPGKGLEWVSSINSGGSTYYPDSVKGRFTISRENAKNSLYLQMNSLRAGDTAVYYCARVNYYGYGDYAMDYWGQGTLVTVSS VL: DIQMTQSPSSLSASVGDRVTITCQASQDINSYLSWFQQKPGKAPKTLIYRANRLVTGVPSRFSGSGSGTDFTFTISSLQPEDIATYYCLQYDEFPYTFGGGTKLEIKR | 0.33 nM | 0.23 nM | 0.04 nM | 0.17 nM
3D8-Hu56 (antibody, human IgG1, kappa, V domains shown, humanized, human IgG1 / kappa) VH: EVQLVESGGGLVQPGGSLRLSCAASGFTFSSYAMSWVRQAPGKGLEWVSSINSGGSTYYPDSVKGRFTISRENAKNSLYLQMNSLRAGDTAVYYCARVNYYGYGDYAMDYWGQGTLVTVSS VL: DIQMTQSPSSLSASVGDRVTITCQASQDINSYLSWFQQKPGKSPKTLIYRANRLVTGVPSRFSGSGSGTDYTFTISSLQPEDIATYYCLQYDEFPYTFGGGTKLEIKR | 0.33 nM | 0.3 nM | 0.09 nM | 0.29 nM
3D8-Hu57 (antibody, human IgG1, kappa, V domains shown, humanized, human IgG1 / kappa) VH: EVQLVESGGGLVQPGGSLRLSCAASGFTFSSYAMSWVRQAPGKGLEWVSSINSGGSTYYPDSVKGRFTISRENAKNSLYLQMNSLRAGDTAVYYCARVNYYGYGDYAMDYWGQGTLVTVSS VL: DIQMTQSPSSLSASVGDRVTITCQASQDISNYLSWFQQKPGKSPKTLIYRANRLVTGVPSRFSGSGSGTDYTFTISSLQPEDIATYYCLQYDEFPYTFGGGTKLEIKR | 0.37 nM | 0.27 nM | 0.13 nM | 0.28 nM
3D8-Hu85 (antibody, human IgG1, kappa, V domains shown, humanized, human IgG1 / kappa) VH: EVQLVESGGGLVQPGGSLRLSCAASGFTFSSYAMSWVRQAPEKRLEWVSSISSGGSTYYPDSVKGRFTISRDNSKNTLYLQMNSLRAEDTAVYYCARVNYYGYGDYAMDYWGQGTLVTVSS VL: DIQMTQSPSSLSASVGDRVTITCQASQDINSYLSWFQQKPGKAPKTLIYRANRLVTGVPSRFSGSGSGTDFTFTISSLQPEDIATYYCLQYDEFPYTFGGGTKLEIKR | 0.25 nM | 0.45 nM | 0.11 nM | 0.25 nM
3D8-Hu86 (antibody, human IgG1, kappa, V domains shown, humanized, human IgG1 / kappa) VH: EVQLVESGGGLVQPGGSLRLSCAASGFTFSSYAMSWVRQAPEKRLEWVSSISSGGSTYYPDSVKGRFTISRDNSKNTLYLQMNSLRAEDTAVYYCARVNYYGYGDYAMDYWGQGTLVTVSS VL: DIQMTQSPSSLSASVGDRVTITCQASQDINSYLSWFQQKPGKSPKTLIYRANRLVTGVPSRFSGSGSGTDYTFTISSLQPEDIATYYCLQYDEFPYTFGGGTKLEIKR | 0.3 nM | 0.28 nM | 0.05 nM | 0.28 nM
3D8-Hu87 (antibody, human IgG1, kappa, V domains shown, humanized, human IgG1 / kappa) VH: EVQLVESGGGLVQPGGSLRLSCAASGFTFSSYAMSWVRQAPEKRLEWVSSISSGGSTYYPDSVKGRFTISRDNSKNTLYLQMNSLRAEDTAVYYCARVNYYGYGDYAMDYWGQGTLVTVSS VL: DIQMTQSPSSLSASVGDRVTITCQASQDISNYLSWFQQKPGKSPKTLIYRANRLVTGVPSRFSGSGSGTDYTFTISSLQPEDIATYYCLQYDEFPYTFGGGTKLEIKR | 0.21 nM | 0.55 nM | 0.17 nM | 0.27 nM
3D8-Hu95 (antibody, human IgG1, kappa, V domains shown, humanized, human IgG1 / kappa) VH: EVQLVESGGGLVQPGGSLRLSCAASGFTFSSYAMSWVRQAPEKRLEWVSSISNGGSTYYPDSVKGRFTISRDNSKNTLYLQMNSLRAEDTAVYYCARVNYYGYGDYAMDYWGQGTLVTVSS VL: DIQMTQSPSSLSASVGDRVTITCQASQDINSYLSWFQQKPGKAPKTLIYRANRLVTGVPSRFSGSGSGTDFTFTISSLQPEDIATYYCLQYDEFPYTFGGGTKLEIKR | 0.32 nM | 0.56 nM | 0.13 nM | 0.36 nM
3D8-Hu96 (antibody, human IgG1, kappa, V domains shown, humanized, human IgG1 / kappa) VH: EVQLVESGGGLVQPGGSLRLSCAASGFTFSSYAMSWVRQAPEKRLEWVSSISNGGSTYYPDSVKGRFTISRDNSKNTLYLQMNSLRAEDTAVYYCARVNYYGYGDYAMDYWGQGTLVTVSS VL: DIQMTQSPSSLSASVGDRVTITCQASQDINSYLSWFQQKPGKSPKTLIYRANRLVTGVPSRFSGSGSGTDYTFTISSLQPEDIATYYCLQYDEFPYTFGGGTKLEIKR | 0.3 nM | 0.54 nM | 0.11 nM | 0.3 nM
3D8-Hu97 (antibody, human IgG1, kappa, V domains shown, humanized, human IgG1 / kappa) VH: EVQLVESGGGLVQPGGSLRLSCAASGFTFSSYAMSWVRQAPEKRLEWVSSISNGGSTYYPDSVKGRFTISRDNSKNTLYLQMNSLRAEDTAVYYCARVNYYGYGDYAMDYWGQGTLVTVSS VL: DIQMTQSPSSLSASVGDRVTITCQASQDISNYLSWFQQKPGKSPKTLIYRANRLVTGVPSRFSGSGSGTDYTFTISSLQPEDIATYYCLQYDEFPYTFGGGTKLEIKR | 0.3 nM | 0.58 nM | 0.43 nM | 0.52 nM
3D8-HuC44 (antibody, human IgG1, kappa, V domains shown, humanized, human IgG1 / kappa) VH: EVQLVESGGGLVQPGGSLRLSCAASGFTFSSYAMSWVRQAPGKGLEWVSSINSGGSTYYPDSVKGRFTISRDNSKNTLYLQMNSLRAEDTAVYYCARVNYYGYGDYAMDYWGQGTLVTVSS VL: DIQMTQSPSSLSASVGDRVTITCQASQDISNYLTWFQQKPGKSPKTLIHRANRLVTGVPSRFSGSGSGTDFTFTISSLQPEDIATYYCLQYDEFPYTFGGGTKVEIKR | 0.28 nM | 0.18 nM | 0.03 nM | 0.16 nM
3D8-HuC54 (antibody, human IgG1, kappa, V domains shown, humanized, human IgG1 / kappa) VH: EVQLVESGGGLVQPGGSLRLSCAASGFTFSSYAMSWVRQAPGKGLEWVSSINSGGSTYYPDSVKGRFTISRENAKNSLYLQMNSLRAGDTAVYYCARVNYYGYGDYAMDYWGQGTLVTVSS VL: DIQMTQSPSSLSASVGDRVTITCQASQDISNYLTWFQQKPGKSPKTLIHRANRLVTGVPSRFSGSGSGTDFTFTISSLQPEDIATYYCLQYDEFPYTFGGGTKVEIKR | 0.23 nM | 0.23 nM | 0.03 nM | 0.19 nM

From patent US20240018237A1 (SICHUAN KELUN BIOTECH BIOPHARMACEUTICAL, published 2024)
